The target of one test is T1, PDL1 protein (UniProt Q9NZQ7 19-238).
T1 construct: Bought recombinant protein
Kind of test: ELISA, coated PDL1 protein, OD450 [panels A, B]. Here is the method: (3) PDL1 protein (purchased from Acro) was diluted to 2 μg/ml with PBS buffer, added to a 96-well plate at a volume of 100 μL/well, and placed at 4° C. overnight. The PBS buffer in the 96-well plate was aspirated, and the plate was washed 6 times with PBST (pH 7.2 PBS containing 0.10% Tween 20) buffer. Then, PBS/10% BSA was added at 200 μL/well and incubated at 37° C. for 2 h for blocking. The blocking solution was removed, and the plate was washed six times with PBST. Then, the to-be-tested bispecific antibodies serially diluted with PBST/0.05% BSA, Cross3×PDL1, Cross303×PDL1, Cross307×PDL1, Cross308×PDL1, Cross309×PDL1, Cross310×PDL1, Cross311×PDL1, Cross312×PDL1, Cross313×PDL1, Cross314×PDL1, Cross316×PDL1, Cross317×PDL1, Cross318×PDL1, Cross323×PDL1, Cross325×PDL1, Cross326×PDL1, and control IgG1LALA (purchased from Bio-Tech) were added at 100 μL/well, and incubated at 37° C. for 1 h. The reaction system was removed, and the plate was washed 6 times with PBST. Then, the cells were incubated at 37° C. for 1 h with HRP (horseradish peroxidase)-labeled anti-human secondary antibody (Fab specific) (purchased from Sigma) serially diluted with PBST/0.05% BSA at 100 μL/well. After the plate was washed six times with PBST, TMB (tetramethylbenzidine) was added at 80 μL/well and incubated at room temperature for 3 min. […] The absorbance was read at 450 nm using a microplate reader.
On the technique in general: In an ELISA, binding on a coated surface is turned into a signal by an enzyme label.

Test [1] deals with T2, PDL1 on A-375 melanoma cells, HCT-15 colorectal cancer cells and A549 lung cancer cells (UniProt Q9NZQ7 19-290, limits assumed).
T2 construct: whole, on cells
T2 sequence (Q9NZQ7 19-290 limits assumed): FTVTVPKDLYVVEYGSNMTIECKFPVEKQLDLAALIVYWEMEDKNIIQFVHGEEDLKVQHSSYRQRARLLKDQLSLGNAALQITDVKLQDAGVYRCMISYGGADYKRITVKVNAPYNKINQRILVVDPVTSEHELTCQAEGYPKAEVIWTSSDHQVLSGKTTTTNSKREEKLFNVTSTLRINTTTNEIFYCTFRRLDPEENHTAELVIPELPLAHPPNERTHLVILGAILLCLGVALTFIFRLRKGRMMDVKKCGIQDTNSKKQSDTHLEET
As to the kind of experiment: flow cytometry, A549 cells, MFI [panel B]. The method, boiled down:
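Cells were blocked with goat serum at 4° C for 30 min, then incubated with serially diluted bispecific antibodies or hIgG1LALA control at 4° C for 30 min. Bound antibody was detected with Alexa-647 anti-human IgG (4° C, 30 min, dark) and read by flow cytometry.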
In general terms: A flow cytometer gives signals particle by particle.

T1 sequence (Q9NZQ7 19-238 limits assumed): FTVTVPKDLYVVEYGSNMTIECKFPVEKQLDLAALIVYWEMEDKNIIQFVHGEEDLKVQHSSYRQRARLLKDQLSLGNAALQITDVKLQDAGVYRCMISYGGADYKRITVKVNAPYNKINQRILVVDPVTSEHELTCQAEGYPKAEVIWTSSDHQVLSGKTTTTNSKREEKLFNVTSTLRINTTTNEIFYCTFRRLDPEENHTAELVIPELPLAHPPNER

B1: Cross3×PDL1 (bispecific antibody, human IgG1, kappa, L234A L235A)
scFv: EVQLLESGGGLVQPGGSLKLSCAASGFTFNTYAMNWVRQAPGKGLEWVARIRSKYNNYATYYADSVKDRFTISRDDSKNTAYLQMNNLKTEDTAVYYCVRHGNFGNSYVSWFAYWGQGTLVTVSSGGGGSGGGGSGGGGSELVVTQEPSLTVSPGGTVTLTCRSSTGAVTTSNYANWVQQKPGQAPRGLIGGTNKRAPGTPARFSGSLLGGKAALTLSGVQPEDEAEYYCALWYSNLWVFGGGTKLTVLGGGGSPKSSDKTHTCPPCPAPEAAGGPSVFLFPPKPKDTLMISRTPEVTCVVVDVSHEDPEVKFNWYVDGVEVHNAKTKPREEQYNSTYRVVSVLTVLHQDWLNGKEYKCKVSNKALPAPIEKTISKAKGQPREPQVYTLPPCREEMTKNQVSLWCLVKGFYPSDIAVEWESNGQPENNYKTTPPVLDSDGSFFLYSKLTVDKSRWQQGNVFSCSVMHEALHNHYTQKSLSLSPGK
heavy: QVQLVQSGAEVKKPGASVKVSCKASGYSFTGYYMHWVRQAPGQGLEWIGRINPYNGATTYSQNFKDRATMTVDTSISTAYMELSRLRSDDTAVYYCVPTGMGYFLMDYWGQGTLVTVSSASTKGPSVFPLAPSSKSTSGGTAALGCLVKDYFPEPVTVSWNSGALTSGVHTFPAVLQSSGLYSLSSVVTVPSSSLGTQTYICNVNHKPSNTKVDKKVEPKSCDKTHTCPPCPAPEAAGGPSVFLFPPKPKDTLMISRTPEVTCVVVDVSHEDPEVKFNWYVDGVEVHNAKTKPREEQYNSTYRVVSVLTVLHQDWLNGKEYKCKVSNKALPAPIEKTISKAKGQPREPQVCTLPPSREEMTKNQVSLSCAVKGFYPSDIAVEWESNGQPENNYKTTPPVLDSDGSFFLVSKLTVDKSRWQQGNVFSCSVMHEALHNHYTQKSLSLSPGK
light: DIQLTQSPSFLSASVGDRVTITCKASQDVGSAVVWYQQKPGKAPKLLIYWASTRHTGVPSRFSGSGSGTEFTLTISSLQPEDFATYFCQQFTSYPTFGQGTKLEIKRTVAAPSVFIFPPSDEQLKSGTASVVCLLNNFYPREAKVQWKVDNALQSGNSQESVTEQDSKDSTYSLSSTLTLSKADYEKHKVYACEVTHQGLSSPVTKSFNRGEC
notes: also called parent Cross3×PDL1 bispecific antibody
For the molecule B1, the EC50 (read off the curve) (in general, the concentration at which the effect is half-maximal) with PDL1 protein is approximately 0.2 µg/mL; in test [1] it was approximately 1 µg/mL.

The record behind these values is patent US20260125472A1 (HEFEI TG IMMUNOPHARMA, published 2026).
